Results: US20060140946A1 (published 2006)

B1: p55-sf2 TNF receptor/IgG1 fusion protein (Fc fusion)
chain: QVCPQGKYIHPQNNSICCTKCHKGTYLYNDCPGPGQDTDCRECESGSFTASENHLRHCLSCSKCRKEMGQVEISSCTVDRDTVCGCRKNQYRHYWSENLFQCFNCSLCLNGTVHLSCQEKQNTVCTCHAGFFLRENECVSCSNCKKSLECTKLCLPQIPGTLVTVSS
B2: p75P-sf2 TNF receptor/IgG1 fusion protein (Fc fusion)
chain: QLPAQVAFTPYAPEPGSTCRLREYYDQTAQMCCSKCSPGQHAKVFCTKTSDTVCDSCEDSTYTQLWNWVPECLSCGSRCSSDQVETQACTREQNRICTCRPGWYCALSKQEGCRLCAPLRKCRPGFGVARPGTETSDVVCKPCAPGTFSNTTSSTDICRPHQICNVVAIPGNASMDAVCTSTSGTLVTVSS

Target: human tumor necrosis factor-alpha (hTNFα) (human, UniProt P01375 77-233)
Assay: cell-based or functional assay

Chain of human tumor necrosis factor-alpha (hTNFα) (P01375 77-233): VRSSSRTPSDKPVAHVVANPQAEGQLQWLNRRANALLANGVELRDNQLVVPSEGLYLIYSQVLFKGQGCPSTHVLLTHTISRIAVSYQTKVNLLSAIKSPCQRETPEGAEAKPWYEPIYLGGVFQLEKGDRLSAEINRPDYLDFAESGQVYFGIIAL

Row | Binder | IC50: concentration of fusion protein required to inhibit 2 ng/ml (39.2 pM) TNFα by 50%, WEHI 164 cytotoxicity assay
1 | B1 | 70 pM
2 | B2 | 70 pM
